Common to all, as to type: cell-based
Test [1] has as its target T1, SSTR4 (Homo sapiens, UniProt P31391).
T1 construct: The entire GPCR coding regions were cloned downstream of the CMV promoter and upstream of the ED; expressed in transfected cells; host or cells: HEK293 or CHOK1 cells, retroviral infection (pLNCX2)
The test is described as follows: PathHunter β-arrestin2-EA / GPCR-ED enzyme fragment complementation, SSTR4-ED fusion. To be noted: saturating ligand.
Excerpt: The cells used were HEK293 and CHOK1 cells. […] The viral plasmid was the PLNCX2 vector from Clontech. The plasmid includes sufficient retroviral sequences to enable viral production in the appropriate packaging cell lines. The plasmid also includes the neomycin antibiotic resistance gene and a CMV promoter that is used to drive expression of the target ED fusion. […] The ED is fused at the intracellular terminus, i.e., C-terminus of the proteins.
Preparation of Detection Reagents—The detection reagents must be prepared as a working solution prior to use, and once prepared are stable for at least 24 hours at room temperature with no impact on assay performance. The detection reagents consist of the substrate and co-factors for chemiluminescence signal detection, as well as the reagents necessary for selective cell permeabilization. Working solution is prepared by combining PathHunter™ Cell Assay Buffer (DiscoveRx, Inc., Fremont, Calif.), Galacton Star® and Emerald II® reagent to 25 μl of cells+compound. reagents (ABI, Bedford, Mass.) at a ratio of 19:1:5.
The fourth column indicates the fold induction for each of the constructs, where saturating conditions of the ligand were employed.

Test [2] addresses T2, CHRM2 (Homo sapiens, UniProt P08172).
T2 construct: The entire GPCR coding regions were cloned downstream of the CMV promoter and upstream of the ED; expressed in transfected cells; host or cells: HEK293 or CHOK1 cells, retroviral infection (pLNCX2)
The test is described as follows: PathHunter β-arrestin2-EA / GPCR-ED enzyme fragment complementation, CHRM2-ED fusion. As to conditions: saturating ligand. The text has this: (§1) The following are the directions for performing the determinations of the response to inducing agents and comparing the prior art ED (pK1) to an ED of the subject invention (pK2):
(§2) The cells used were HEK293 and CHOK1 cells. Following substantially the procedures described in U.S. patent application Ser. No. 10/229,247, filed Aug. 27, 2002, and U.S. patent application Ser. No. 11/132,764 (Publication no. 2005/0287522), filed May 18, 2005, whose disclosures are specifically incorporated by reference, each of the cell lines was infected with retroviral constructs. The viral plasmid was the PLNCX2 vector from Clontech. The plasmid includes sufficient retroviral sequences to enable viral production in the appropriate packaging cell lines. The plasmid also includes the neomycin antibiotic resistance gene and a CMV promoter that is used to drive expression of the target ED fusion. […] The ED is fused at the intracellular terminus, i.e., C-terminus of the proteins.
(§3) Preparation of Detection Reagents—The detection reagents must be prepared as a working solution prior to use, and once prepared are stable for at least 24 hours at room temperature with no impact on assay performance. The detection reagents consist of the substrate and co-factors for chemiluminescence signal detection, as well as the reagents necessary for selective cell permeabilization. […]

Test [3] deals with T3, CRTH2 (Homo sapiens, UniProt Q9Y5Y4).
T3 construct: The entire GPCR coding regions were cloned downstream of the CMV promoter and upstream of the ED; expressed in transfected cells; host or cells: HEK293 or CHOK1 cells, retroviral infection (pLNCX2)
The test is described as follows: PathHunter β-arrestin2-EA / GPCR-ED enzyme fragment complementation, CRTH2-ED fusion. To be noted: saturating ligand.
Excerpt: as §1, §2, §3

For test [4], the target named is T4, P2RY6 (Homo sapiens, UniProt Q15077).
T4 construct: The entire GPCR coding regions were cloned downstream of the CMV promoter and upstream of the ED; expressed in transfected cells; host or cells: HEK293 or CHOK1 cells, retroviral infection (pLNCX2)
The test is described as follows: PathHunter β-arrestin2-EA / GPCR-ED enzyme fragment complementation, P2RY6-ED fusion. To be noted: saturating ligand.
Excerpt: as §1, §2, §3

In test [5] the target is T5, CCR6 (Homo sapiens, UniProt P51684).
T5 construct: The entire GPCR coding regions were cloned downstream of the CMV promoter and upstream of the ED; expressed in transfected cells; host or cells: HEK293 or CHOK1 cells, retroviral infection (pLNCX2)
Nature of the test: PathHunter β-arrestin2-EA / GPCR-ED enzyme fragment complementation, CCR6-ED fusion. To be noted: saturating ligand.
Excerpt: as §1, §2, §3

In test [6] the target is T6, PTHR2 (Homo sapiens, UniProt P49190).
T6 construct: The entire GPCR coding regions were cloned downstream of the CMV promoter and upstream of the ED; expressed in transfected cells; host or cells: HEK293 or CHOK1 cells, retroviral infection (pLNCX2)
The test is described as follows: PathHunter β-arrestin2-EA / GPCR-ED enzyme fragment complementation, PTHR2-ED fusion. As to conditions: PTHR2 fused to PK2 ED; saturating ligand.
Excerpt: as §1, §2
Preparation of Detection Reagents—The detection reagents must be prepared as a working solution prior to use, and once prepared are stable for at least 24 hours at room temperature with no impact on assay performance. The detection reagents consist of the substrate and co-factors for chemiluminescence signal detection, as well as the reagents necessary for selective cell permeabilization. Working solution is prepared by combining PathHunter™ Cell Assay Buffer (DiscoveRx, Inc., Fremont, Calif.), Galacton Star® and Emerald II® reagent […]. reagents (ABI, Bedford, Mass.) at a ratio of 19:1:5. Sufficient reagent is provided in each kit to perform the indicated number of assays in a 384-well, full-volume microplate assuming an addition of 12 μl of detection reagent per well or in a 96-well, full-volume microplate assuming an addition of 50 μl of detection reagent per well. […]

Test [7] addresses T7, SALPR (Homo sapiens, UniProt Q9NSD7).
T7 construct: The entire GPCR coding regions were cloned downstream of the CMV promoter and upstream of the ED; expressed in transfected cells; host or cells: HEK293 or CHOK1 cells, retroviral infection (pLNCX2)
Nature of the test: PathHunter β-arrestin2-EA / GPCR-ED enzyme fragment complementation, SALPR-ED fusion. To be noted: saturating ligand.
Excerpt: as §1, §2, §3

For test [8], the target named is T8, CCR4 (Homo sapiens, UniProt P51679).
T8 construct: The entire GPCR coding regions were cloned downstream of the CMV promoter and upstream of the ED; expressed in transfected cells; host or cells: HEK293 or CHOK1 cells, retroviral infection (pLNCX2)
Nature of the test: PathHunter β-arrestin2-EA / GPCR-ED enzyme fragment complementation, CCR4-ED fusion. To be noted: saturating ligand.
Excerpt: as §1, §2, §3

T6 sequence (P49190 25-550, species assumed): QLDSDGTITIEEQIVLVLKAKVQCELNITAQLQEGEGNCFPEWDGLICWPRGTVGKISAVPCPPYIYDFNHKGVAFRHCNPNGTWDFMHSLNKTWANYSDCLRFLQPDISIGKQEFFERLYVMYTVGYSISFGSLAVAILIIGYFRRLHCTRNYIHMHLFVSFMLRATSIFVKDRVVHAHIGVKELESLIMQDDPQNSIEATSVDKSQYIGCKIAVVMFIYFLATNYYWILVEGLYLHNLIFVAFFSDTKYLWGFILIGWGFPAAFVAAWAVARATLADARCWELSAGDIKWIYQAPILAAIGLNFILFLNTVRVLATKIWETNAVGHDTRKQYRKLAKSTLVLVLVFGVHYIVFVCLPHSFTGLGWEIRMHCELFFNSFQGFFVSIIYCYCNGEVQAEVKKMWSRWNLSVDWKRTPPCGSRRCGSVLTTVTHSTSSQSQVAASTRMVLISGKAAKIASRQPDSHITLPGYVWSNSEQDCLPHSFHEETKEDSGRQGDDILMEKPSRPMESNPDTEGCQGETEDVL
T6 sequence (P32121 whole entry partner, species assumed): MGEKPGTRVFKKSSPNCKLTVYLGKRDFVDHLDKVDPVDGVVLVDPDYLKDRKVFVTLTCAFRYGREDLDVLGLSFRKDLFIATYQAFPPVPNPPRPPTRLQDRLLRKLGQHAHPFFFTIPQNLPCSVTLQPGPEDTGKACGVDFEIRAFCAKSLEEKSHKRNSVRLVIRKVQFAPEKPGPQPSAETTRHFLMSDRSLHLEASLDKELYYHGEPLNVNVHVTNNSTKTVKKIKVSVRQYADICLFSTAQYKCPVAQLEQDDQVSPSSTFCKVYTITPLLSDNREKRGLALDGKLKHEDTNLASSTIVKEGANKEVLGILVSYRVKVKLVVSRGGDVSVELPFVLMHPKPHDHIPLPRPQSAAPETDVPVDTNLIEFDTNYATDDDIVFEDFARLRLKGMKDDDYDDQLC
T5 sequence (P51684 whole entry): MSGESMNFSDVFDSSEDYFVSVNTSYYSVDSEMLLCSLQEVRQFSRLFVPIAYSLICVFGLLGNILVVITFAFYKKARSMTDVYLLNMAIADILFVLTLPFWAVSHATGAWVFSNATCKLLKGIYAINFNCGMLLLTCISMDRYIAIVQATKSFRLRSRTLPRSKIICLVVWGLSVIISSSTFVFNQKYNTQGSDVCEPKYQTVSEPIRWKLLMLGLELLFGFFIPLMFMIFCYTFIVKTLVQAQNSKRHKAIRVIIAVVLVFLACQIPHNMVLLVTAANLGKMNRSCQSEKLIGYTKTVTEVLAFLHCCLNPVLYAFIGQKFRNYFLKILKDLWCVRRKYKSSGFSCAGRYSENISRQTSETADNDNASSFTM
T5 sequence (P32121 whole entry partner): as the sequence (P32121 whole entry partner, species assumed) above
T7 sequence (Q9NSD7 whole entry, species assumed): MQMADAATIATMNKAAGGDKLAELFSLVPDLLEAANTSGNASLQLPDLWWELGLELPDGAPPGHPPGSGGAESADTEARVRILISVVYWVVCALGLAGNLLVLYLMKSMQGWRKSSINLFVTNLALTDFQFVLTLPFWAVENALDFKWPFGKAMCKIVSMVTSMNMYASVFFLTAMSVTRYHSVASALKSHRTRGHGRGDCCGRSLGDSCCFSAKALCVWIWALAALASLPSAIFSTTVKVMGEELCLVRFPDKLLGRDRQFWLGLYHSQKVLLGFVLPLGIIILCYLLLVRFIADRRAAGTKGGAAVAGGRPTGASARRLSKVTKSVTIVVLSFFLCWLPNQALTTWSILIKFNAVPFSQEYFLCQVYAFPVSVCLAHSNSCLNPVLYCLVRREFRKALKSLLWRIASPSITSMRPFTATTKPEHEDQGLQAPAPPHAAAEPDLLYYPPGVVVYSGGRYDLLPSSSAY
T7 sequence (P32121 whole entry partner, species assumed): as the sequence (P32121 whole entry partner, species assumed) above
T8 sequence (P51679 whole entry): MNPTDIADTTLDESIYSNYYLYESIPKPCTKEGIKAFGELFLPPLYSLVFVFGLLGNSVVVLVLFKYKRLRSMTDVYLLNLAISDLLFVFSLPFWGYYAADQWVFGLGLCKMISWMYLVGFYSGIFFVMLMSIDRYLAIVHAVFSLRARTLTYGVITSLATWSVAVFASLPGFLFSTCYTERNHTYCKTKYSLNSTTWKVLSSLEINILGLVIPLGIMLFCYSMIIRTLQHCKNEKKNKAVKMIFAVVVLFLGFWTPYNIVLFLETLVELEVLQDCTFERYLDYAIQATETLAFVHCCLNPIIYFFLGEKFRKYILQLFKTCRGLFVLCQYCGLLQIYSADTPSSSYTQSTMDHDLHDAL
T8 sequence (P32121 whole entry partner): as the sequence (P32121 whole entry partner, species assumed) above
T3 sequence (Q9Y5Y4 whole entry, species assumed): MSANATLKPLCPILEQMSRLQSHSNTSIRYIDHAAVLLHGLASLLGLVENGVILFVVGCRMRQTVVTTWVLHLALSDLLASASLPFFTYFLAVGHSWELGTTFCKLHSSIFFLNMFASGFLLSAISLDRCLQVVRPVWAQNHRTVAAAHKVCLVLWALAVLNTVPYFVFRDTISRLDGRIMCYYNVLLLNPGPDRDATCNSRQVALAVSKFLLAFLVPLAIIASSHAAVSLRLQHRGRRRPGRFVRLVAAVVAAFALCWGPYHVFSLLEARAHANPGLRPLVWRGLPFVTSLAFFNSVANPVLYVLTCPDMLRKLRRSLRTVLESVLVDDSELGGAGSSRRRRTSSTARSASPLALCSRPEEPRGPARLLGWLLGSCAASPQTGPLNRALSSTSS
T3 sequence (P32121 whole entry partner, species assumed): as the sequence (P32121 whole entry partner, species assumed) above
T1 sequence (P31391 whole entry, species assumed): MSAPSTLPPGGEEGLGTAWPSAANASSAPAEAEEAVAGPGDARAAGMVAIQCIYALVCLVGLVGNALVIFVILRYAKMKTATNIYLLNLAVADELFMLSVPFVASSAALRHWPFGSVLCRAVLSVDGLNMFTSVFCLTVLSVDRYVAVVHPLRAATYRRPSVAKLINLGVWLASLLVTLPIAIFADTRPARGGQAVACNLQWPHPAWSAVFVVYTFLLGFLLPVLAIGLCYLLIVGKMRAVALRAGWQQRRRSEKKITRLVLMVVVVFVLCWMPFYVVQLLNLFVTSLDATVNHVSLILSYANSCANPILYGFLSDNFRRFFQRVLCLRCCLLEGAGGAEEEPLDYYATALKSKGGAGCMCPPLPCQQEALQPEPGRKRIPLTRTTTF
T1 sequence (P32121 whole entry partner, species assumed): as the sequence (P32121 whole entry partner, species assumed) above
T2 sequence (P08172 whole entry, species assumed): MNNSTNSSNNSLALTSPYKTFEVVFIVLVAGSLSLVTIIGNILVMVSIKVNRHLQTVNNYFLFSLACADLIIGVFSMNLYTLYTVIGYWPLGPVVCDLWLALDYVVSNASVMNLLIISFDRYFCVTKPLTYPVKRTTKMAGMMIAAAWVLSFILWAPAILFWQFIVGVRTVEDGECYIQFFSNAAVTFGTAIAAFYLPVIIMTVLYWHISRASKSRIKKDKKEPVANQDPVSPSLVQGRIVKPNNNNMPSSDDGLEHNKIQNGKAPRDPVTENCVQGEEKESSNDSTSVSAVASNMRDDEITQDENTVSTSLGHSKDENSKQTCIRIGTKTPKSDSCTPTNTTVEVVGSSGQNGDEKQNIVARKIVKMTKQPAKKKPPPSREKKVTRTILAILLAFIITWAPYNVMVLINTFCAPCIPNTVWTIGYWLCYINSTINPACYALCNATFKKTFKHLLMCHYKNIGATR
T2 sequence (P32121 whole entry partner, species assumed): as the sequence (P32121 whole entry partner, species assumed) above
T4 sequence (Q15077 whole entry, species assumed): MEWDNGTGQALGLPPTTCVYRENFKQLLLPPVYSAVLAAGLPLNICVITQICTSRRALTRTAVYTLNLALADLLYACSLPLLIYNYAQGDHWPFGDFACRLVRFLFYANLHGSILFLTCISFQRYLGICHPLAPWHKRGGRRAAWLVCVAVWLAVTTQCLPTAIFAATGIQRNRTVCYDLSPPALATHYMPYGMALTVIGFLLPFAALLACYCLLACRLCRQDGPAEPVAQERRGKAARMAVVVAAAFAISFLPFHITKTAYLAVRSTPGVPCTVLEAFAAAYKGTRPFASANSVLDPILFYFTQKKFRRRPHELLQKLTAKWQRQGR
T4 sequence (P32121 whole entry partner, species assumed): as the sequence (P32121 whole entry partner, species assumed) above

Regarding `COC(=O)[C@H](CCCN=C(N)N)NC(=O)CCCc1c(-c2ccccc2)[nH]c2c(F)cc(F)cc12` [L803,087], the Fold induct. in test [1] (SSTR4 fused to PK1 ED) stood at 1.8 fold; in test [1] (SSTR4 fused to PK2 ED), 2.1 fold.
In test [2] (CHRM2 fused to PK2 ED), `C[N+](C)(C)CC#CCN1CCCC1=O` [Oxotremorine M] showed a Fold induct. of 6.1 fold.
As to `O=C1CCCN1CC#CCN1CCCC1` [Oxotremorine], the Fold induct. in test [2] (CHRM2 fused to PK1 ED) stood at 1.6 fold.
As for `CCCCC[C@H](O)/C=C/[C@H]1C(=O)C[C@H](O)[C@@H]1C/C=C\CCCC(=O)O` [Prostaglandin D2], the figures for the Fold induct. result in test [3] (CRTH2 fused to PK1 ED) and in test [3] (CRTH2 fused to PK2 ED) were “none” and 2.6 fold, respectively.
In the case of `O=c1ccn([C@@H]2O[C@H](COP(=O)(O)OP(=O)(O)O)[C@@H](O)[C@H]2O)c(=O)[nH]1` [UDP], the Fold induct. in test [4] (P2RY6 fused to PK1 ED) was determined as 1.3 fold; in test [4] (P2RY6 fused to PK2 ED), 1.9 fold.
For CCL20, the Fold induct. in test [5] (CCR6 fused to PK1 ED) is on record as 1.4 fold; in test [5] (CCR6 fused to PK2 ED) it was 6.5 fold.
PTH (1-34): in test [6], the Fold induct. is on record as 72.9 fold.
With PTHRP, the Fold induct. entry in test [6] is recorded as “none”.
As to TIP39, the Fold induct. in test [6] is recorded as 2.8 fold.

B1: Relaxin-3 (protein)
chain: RAAPYGVRLCGREFIRAVIFTCGGSRWRRSDILAHEAMGDTFPDADADEDSLAGELDEAMGSSEWLALTKSPQAFYRGRPSWQGTPGVLRGSRDVLAGLSSSCCKWGCSKSEISSLC
notes: ligand employed for SALPR
With B1, the Fold induct. entry in test [7] (SALPR fused to PK1 ED) is recorded as “none”; in test [7] (SALPR fused to PK2 ED), 1.8 fold.

B2: CCL22 (protein)
chain: GPYGANMEDSVCCRDYVRYRLPLRVVKHFYWTSDSCPRPGVVLLTFRDKEICADPRVPWVKMILNKLSQ
notes: ligand employed for CCR4
For the molecule B2, the Fold induct. in test [8] (CCR4 fused to PK1 ED) is reported as 18.9 fold; in test [8] (CCR4 fused to PK2 ED) it was 3 fold.

Values taken from US8101373B2, “β-galactosidase donor fragments” (Discoverx Corporation, priority 2007, dated 2012).
